Key:
[1] = biological target: human CD3ε Y50E-FLAG expressed in JK εKO cells (human); assay: proximity ligation; in situ PLA (Duolink) with goat anti-CD3ε and mouse anti-LCK in JK εKO cells expressing hCD3ε variants; unstimulated or stimulated with 5 μg/ml anti-CD3ε (OKT3) for 5 min at 37°C; dots per cell normalised to the stimulated WT
[2] = biological target: human CD3ε cytoplasmic tail fused to GST, Y50E (human); assay: pull-down; GST-CD3ε cytoplasmic tail variants on glutathione sepharose beads, incubated with Jurkat T cell lysate (lysis buffer with 0.3% Brij96V, 20 mM Tris-HCl pH 8, 137 mM NaCl) overnight at 4°C; immunoblot, signals normalised to GST
[3] = biological target: human CD3ε cytoplasmic tail fused to GST, Y39/50E (human); assay: as above

- reduction of TCR-LCK proximity compared to WT [1]: 60%
- residual binding [1]: < 30%
- reduction of binding compared to CD3ε WT [2]: 80%
- reduction of binding compared to CD3ε WT [3]: 80%
Substance: Src family kinase LCK (from UniProt P06239 1-509) (enzyme)
